In article PMC4692061 (Biochemical Journal, 2015):

Target: the molecule itself
Experiment: FRET or BRET

B1: full-length EphA3 (erythropoietin-producing hepatocellular carcinoma A3 receptor tyrosine kinase) tagged at the C-terminus with mTurq or eYFP (receptor, UniProt P29320 21-983, looked up)
chain: ELIPQPSNEVNLLDSKTIQGELGWISYPSHGWEEISGVDEHYTPIRTYQVCNVMDHSQNNWLRTNWVPRNSAQKIYVELKFTLRDCNSIPLVLGTCKETFNLYYMESDDDHGVKFREHQFTKIDTIAADESFTQMDLGDRILKLNTEIREVGPVNKKGFYLAFQDVGACVALVSVRVYFKKCPFTVKNLAMFPDTVPMDSQSLVEVRGSCVNNSKEEDPPRMYCSTEGEWLVPIGKCSCNAGYEERGFMCQACRPGFYKALDGNMKCAKCPPHSSTQEDGSMNCRCENNYFRADKDPPSMACTRPPSSPRNVISNINETSVILDWSWPLDTGGRKDVTFNIICKKCGWNIKQCEPCSPNVRFLPRQFGLTNTTVTVTDLLAHTNYTFEIDAVNGVSELSSPPRQFAAVSITTNQAAPSPVLTIKKDRTSRNSISLSWQEPEHPNGIILDYEVKYYEKQEQETSYTILRARGTNVTISSLKPDTIYVFQIRARTAAGYGTNSRKFEFETSPDSFSISGESSQVVMIAISAAVAIILLTVVIYVLIGRFCGYKSKHGADEKRLHFGNGHLKLPGLRTYVDPHTYEDPTQAVHEFAKELDATNISIDKVVGAGEFGEVCSGRLKLPSKKEISVAIKTLKVGYTEKQRRDFLGEASIMGQFDHPNIIRLEGVVTKSKPVMIVTEYMENGSLDSFLRKHDAQFTVIQLVGMLRGIASGMKYLSDMGYVHRDLAARNILINSNLVCKVSDFGLSRVLEDDPEAAYTTRGGKIPIRWTSPEAIAYRKFTSASDVWSYGIVLWEVMSYGERPYWEMSNQDVIKAVDEGYRLPPPMDCPAALYQLMLDCWQKDRNNRPKFEQIVSILDKLIRNPGSLKIITSAAARPSNLLLDQSNVDITTFRTTGDWLNGVWTAHCKEIFTGVEYSSCDTIAKISTDDMKKVGVTVVGPQKKIISSIKALETQSKNGPVPV
- stoichiometry N: 2
